Laboratory results taken from US20140072613A1, “Compositions and Methods for Treating Cutaneous Scarring” (priority 2012, published 2014).

Key:
Test in all cases: cell-based or functional assay
ASK1(h) (human) = ASK1(h) (human) (UniProt Q99683)
Abl(H8396P)(h) (human) = Abl(H8396P)(h) (human) (UniProt P00519)
Arg(h) (human) = Arg(h) (human) (UniProt P42684)
Axl(h) (human) = biological target: T1, Axl(h) (human) (UniProt P30530)
T1 sequence (looked up): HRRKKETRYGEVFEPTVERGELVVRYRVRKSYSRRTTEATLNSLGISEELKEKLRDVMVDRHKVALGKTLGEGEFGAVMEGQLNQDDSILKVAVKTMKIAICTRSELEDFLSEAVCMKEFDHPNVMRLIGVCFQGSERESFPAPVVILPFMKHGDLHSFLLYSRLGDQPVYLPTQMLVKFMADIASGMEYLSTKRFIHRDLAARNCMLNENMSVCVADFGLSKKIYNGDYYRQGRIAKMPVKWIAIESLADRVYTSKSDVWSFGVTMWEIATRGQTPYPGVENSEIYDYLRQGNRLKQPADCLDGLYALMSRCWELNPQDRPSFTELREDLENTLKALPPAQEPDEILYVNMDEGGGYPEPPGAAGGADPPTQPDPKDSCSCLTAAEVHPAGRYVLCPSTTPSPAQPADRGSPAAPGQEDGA

CDK5/p25(h) (human) = CDK5/p25(h) (human) (UniProt Q00535)
CLK3(h) (human) = CLK3(h) (human) (UniProt P49761)
Chain of CLK3(h) (human) (P49761 whole entry): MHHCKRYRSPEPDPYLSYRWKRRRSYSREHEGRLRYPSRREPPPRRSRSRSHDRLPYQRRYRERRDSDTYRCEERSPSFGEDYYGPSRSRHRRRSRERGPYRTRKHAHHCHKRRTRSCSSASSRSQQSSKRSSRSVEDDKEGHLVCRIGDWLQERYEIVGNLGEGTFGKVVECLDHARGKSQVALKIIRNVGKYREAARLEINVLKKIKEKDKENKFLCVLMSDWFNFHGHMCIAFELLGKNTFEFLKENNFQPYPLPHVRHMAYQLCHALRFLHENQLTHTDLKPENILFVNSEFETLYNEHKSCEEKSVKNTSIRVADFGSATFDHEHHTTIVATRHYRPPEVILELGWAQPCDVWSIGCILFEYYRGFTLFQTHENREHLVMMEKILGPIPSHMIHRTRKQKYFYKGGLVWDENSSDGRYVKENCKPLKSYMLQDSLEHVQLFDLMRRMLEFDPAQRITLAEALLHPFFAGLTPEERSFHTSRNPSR

ErbB4(h) (human) = ErbB4(h) (human) (UniProt Q15303)
Chain of ErbB4(h) (human) (Q15303 706-991 limits assumed): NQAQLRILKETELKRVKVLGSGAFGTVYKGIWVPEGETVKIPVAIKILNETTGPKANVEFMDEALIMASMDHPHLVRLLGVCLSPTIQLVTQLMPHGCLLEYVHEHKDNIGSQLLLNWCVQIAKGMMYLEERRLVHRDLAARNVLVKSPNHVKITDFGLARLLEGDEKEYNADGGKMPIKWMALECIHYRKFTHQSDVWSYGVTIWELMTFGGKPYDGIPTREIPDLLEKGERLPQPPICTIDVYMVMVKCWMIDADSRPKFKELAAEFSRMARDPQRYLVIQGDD

IKKβ(h) (human) = biological target: T2, IKKβ(h) (human) (UniProt O14920)
T2 sequence (looked up): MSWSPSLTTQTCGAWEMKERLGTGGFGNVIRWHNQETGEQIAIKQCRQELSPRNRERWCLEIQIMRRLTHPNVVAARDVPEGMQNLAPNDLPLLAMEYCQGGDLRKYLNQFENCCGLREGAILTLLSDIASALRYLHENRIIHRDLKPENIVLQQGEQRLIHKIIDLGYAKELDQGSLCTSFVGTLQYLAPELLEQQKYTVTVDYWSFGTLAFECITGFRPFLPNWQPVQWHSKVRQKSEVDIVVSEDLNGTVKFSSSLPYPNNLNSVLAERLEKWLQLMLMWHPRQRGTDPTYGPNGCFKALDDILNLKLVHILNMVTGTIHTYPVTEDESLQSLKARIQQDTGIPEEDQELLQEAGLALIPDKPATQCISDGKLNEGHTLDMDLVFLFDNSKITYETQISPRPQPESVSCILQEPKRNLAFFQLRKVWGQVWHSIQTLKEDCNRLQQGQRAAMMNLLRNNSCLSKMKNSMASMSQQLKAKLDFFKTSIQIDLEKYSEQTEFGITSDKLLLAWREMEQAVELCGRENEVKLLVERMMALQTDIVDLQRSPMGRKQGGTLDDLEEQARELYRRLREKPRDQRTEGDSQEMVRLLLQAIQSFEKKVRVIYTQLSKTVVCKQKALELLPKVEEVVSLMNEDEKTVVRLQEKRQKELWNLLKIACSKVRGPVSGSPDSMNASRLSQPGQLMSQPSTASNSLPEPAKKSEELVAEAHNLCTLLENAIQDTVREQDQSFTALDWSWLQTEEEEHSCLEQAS

LKB1(h) (human) = biological target: T3, LKB1(h) (human) (UniProt Q15831)
T3 sequence (looked up): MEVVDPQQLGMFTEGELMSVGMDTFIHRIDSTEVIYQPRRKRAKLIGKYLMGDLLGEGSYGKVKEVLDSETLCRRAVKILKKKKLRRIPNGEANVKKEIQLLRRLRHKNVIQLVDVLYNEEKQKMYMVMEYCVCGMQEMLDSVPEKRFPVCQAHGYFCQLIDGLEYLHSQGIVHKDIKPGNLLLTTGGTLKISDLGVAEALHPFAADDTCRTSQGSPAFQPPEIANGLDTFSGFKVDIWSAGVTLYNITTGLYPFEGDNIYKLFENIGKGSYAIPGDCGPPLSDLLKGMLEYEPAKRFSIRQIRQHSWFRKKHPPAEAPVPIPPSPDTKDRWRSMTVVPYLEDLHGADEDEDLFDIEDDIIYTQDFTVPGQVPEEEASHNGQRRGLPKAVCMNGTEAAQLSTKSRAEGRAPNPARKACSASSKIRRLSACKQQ

Lck(h) activated (human) = Lck(h) activated (human) (UniProt P06239)
MST3(h) (human) = MST3(h) (human) (UniProt Q9Y6E0)
PAR-1Bα(h) (human) = PAR-1Bα(h) (human) (UniProt Q7KZI7)
Chain of PAR-1Bα(h) (human) (Q7KZI7 other isoform, or with tags, fused parts or gaps limits assumed): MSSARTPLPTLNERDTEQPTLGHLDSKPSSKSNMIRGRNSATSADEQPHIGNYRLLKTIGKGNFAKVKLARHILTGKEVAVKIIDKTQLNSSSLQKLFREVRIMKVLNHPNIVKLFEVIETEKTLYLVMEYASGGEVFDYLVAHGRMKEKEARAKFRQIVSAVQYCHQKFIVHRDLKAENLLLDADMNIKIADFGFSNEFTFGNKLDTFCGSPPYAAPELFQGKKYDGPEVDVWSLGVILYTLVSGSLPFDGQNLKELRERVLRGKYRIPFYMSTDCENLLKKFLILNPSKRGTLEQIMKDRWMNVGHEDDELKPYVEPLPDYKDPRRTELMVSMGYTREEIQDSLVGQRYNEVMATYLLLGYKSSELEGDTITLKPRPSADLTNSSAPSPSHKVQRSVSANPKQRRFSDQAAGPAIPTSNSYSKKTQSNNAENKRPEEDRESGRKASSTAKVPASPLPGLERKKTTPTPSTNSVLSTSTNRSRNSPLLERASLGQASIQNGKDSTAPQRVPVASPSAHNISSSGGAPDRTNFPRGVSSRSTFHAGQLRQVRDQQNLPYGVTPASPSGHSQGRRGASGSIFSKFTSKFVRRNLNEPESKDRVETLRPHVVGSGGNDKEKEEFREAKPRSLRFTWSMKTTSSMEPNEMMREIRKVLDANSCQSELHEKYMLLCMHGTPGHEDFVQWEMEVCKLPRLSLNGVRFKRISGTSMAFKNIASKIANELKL

PKBβ(h) (human) = PKBβ(h) (human) (UniProt P31751)
Chain of PKBβ(h) (human) (P31751 whole entry): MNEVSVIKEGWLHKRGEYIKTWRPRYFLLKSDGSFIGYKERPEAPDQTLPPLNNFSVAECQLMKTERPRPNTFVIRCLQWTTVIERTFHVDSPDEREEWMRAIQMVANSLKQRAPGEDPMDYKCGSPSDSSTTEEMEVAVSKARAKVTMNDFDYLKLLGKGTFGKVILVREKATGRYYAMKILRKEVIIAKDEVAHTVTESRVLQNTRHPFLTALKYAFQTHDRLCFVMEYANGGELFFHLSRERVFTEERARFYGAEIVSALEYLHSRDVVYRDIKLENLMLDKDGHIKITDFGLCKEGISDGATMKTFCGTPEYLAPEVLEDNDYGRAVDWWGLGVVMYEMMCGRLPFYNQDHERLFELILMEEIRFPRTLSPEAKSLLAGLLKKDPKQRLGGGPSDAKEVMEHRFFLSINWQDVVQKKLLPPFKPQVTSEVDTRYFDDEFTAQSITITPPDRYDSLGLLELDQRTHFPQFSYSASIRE

PKCι(h) (human) = PKCι(h) (human) (UniProt P41743)
Chain of PKCι(h) (human) (P41743 whole entry): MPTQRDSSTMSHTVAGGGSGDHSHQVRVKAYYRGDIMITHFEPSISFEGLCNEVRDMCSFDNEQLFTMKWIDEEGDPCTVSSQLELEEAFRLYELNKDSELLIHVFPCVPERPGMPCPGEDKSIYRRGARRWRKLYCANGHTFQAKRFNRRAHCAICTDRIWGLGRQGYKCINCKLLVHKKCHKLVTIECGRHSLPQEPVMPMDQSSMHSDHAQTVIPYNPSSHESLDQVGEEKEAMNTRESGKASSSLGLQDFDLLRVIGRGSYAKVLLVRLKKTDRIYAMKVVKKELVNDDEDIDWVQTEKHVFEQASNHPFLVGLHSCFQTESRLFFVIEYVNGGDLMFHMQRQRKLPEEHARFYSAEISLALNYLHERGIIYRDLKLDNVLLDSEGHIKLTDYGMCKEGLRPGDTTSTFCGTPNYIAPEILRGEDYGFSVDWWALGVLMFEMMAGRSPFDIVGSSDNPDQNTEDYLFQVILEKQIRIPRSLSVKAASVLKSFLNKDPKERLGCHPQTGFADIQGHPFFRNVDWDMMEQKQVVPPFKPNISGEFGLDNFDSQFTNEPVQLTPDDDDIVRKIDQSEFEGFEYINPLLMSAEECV

PRAK(h) (human) = PRAK(h) (human) (UniProt Q8IW41)
Chain of PRAK(h) (human) (Q8IW41 whole entry): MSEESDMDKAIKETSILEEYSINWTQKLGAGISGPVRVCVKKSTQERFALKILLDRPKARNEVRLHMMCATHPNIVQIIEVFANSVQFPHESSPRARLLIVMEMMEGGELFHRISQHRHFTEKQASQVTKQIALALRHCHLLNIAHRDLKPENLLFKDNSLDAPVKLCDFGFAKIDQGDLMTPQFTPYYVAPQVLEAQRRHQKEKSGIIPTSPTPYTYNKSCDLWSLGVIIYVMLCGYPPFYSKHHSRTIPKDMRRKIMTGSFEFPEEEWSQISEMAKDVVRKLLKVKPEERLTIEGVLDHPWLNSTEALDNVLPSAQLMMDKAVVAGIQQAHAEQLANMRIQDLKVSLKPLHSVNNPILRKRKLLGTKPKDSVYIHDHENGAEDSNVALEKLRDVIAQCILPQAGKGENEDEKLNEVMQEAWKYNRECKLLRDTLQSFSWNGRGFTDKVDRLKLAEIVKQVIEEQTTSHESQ

TBK1(h) (human) = biological target: T4, TBK1(h) (human) (UniProt Q9UHD2)
T4 sequence (looked up): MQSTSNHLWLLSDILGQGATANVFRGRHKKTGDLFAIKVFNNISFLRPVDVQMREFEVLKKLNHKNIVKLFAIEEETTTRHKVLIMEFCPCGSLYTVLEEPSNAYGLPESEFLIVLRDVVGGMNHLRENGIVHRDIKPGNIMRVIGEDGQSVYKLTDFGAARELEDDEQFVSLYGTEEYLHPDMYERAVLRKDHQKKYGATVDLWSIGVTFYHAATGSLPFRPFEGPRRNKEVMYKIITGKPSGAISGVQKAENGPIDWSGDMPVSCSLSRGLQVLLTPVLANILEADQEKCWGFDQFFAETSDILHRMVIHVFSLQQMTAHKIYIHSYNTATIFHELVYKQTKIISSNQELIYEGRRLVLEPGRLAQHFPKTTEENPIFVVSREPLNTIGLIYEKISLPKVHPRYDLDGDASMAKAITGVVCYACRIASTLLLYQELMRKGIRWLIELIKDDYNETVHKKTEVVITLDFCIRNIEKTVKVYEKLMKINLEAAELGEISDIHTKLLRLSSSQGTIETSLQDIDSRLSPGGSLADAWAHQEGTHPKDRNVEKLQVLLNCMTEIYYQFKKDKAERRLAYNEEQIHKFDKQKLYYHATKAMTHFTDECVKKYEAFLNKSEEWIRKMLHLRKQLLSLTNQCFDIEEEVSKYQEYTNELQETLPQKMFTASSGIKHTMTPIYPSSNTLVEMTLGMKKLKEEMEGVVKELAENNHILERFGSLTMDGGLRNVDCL

TrkA(h) (human) = TrkA(h) (human) (UniProt P04629)
Chain of TrkA(h) (human) (P04629 441-796 limits assumed): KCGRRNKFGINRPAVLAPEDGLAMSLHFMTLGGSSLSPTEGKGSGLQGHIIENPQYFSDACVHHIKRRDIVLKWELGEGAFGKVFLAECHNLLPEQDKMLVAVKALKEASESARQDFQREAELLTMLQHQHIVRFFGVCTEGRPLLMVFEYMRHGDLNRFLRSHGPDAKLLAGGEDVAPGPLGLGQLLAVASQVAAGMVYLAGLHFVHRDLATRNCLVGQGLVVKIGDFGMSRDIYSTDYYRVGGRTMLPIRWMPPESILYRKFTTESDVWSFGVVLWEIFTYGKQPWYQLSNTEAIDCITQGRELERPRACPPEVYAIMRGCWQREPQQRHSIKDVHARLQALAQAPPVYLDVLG

Chain of ASK1(h) (human) (Q99683 649-946 limits assumed): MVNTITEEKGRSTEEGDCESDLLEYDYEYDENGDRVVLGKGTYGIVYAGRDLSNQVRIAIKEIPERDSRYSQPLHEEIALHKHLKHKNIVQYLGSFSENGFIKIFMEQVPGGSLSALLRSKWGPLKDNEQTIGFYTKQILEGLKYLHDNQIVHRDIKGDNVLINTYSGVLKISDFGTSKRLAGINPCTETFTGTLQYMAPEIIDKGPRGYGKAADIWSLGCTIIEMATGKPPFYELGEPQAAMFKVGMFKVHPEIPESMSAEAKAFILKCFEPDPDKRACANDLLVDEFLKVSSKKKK
Chain of Arg(h) (human) (P42684 38-1182 limits assumed): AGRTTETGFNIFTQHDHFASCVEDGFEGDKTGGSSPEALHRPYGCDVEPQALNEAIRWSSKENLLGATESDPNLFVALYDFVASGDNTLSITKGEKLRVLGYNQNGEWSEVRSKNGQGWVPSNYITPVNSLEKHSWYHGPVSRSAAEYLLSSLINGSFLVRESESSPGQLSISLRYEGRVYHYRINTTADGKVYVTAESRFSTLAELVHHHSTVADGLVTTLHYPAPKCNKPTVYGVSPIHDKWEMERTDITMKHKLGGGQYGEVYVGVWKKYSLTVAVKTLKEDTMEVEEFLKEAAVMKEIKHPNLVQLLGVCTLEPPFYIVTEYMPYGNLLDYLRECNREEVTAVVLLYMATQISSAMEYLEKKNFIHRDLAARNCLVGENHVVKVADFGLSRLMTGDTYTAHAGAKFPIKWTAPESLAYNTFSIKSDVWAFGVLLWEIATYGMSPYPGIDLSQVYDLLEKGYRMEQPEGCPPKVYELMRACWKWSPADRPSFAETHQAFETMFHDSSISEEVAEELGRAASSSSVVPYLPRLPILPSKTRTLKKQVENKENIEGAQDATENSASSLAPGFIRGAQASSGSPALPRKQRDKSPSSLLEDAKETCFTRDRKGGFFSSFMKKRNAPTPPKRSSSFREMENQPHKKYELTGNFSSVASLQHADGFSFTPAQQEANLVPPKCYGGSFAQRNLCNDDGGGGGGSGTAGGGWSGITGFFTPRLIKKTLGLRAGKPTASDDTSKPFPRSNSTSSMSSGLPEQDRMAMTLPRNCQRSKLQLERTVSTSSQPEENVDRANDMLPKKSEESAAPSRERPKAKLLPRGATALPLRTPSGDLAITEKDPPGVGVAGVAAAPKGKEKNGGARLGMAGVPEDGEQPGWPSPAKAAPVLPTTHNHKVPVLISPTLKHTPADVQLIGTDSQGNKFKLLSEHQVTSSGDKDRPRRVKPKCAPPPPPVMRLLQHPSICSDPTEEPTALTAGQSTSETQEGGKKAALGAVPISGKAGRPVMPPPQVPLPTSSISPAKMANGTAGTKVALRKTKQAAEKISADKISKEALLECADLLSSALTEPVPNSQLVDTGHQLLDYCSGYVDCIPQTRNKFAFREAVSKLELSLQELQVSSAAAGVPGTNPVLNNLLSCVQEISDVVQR

% activity, 100 µM (ASK1(h) (human)): -4%
% activity, 100 µM (Abl(H8396P)(h) (human)): 51%
% activity, 100 µM (Arg(h) (human)): 22%
% activity, 100 µM (Axl(h) (human)): 12%
% activity, 100 µM (CDK5/p25(h) (human)): 66%
% activity, 100 µM (CLK3(h) (human)): 76%
% activity, 100 µM (ErbB4(h) (human)): 2%
% activity, 100 µM (IKKβ(h) (human)): 71%
% activity, 100 µM (LKB1(h) (human)): 51%
% activity, 100 µM (Lck(h) activated (human)): 76%
% activity, 100 µM (MST3(h) (human)): 4%
% activity, 100 µM (PAR-1Bα(h) (human)): 97%
% activity, 100 µM (PKBβ(h) (human)): 21%
% activity, 100 µM (PKCι(h) (human)): 7%
% activity, 100 µM (PRAK(h) (human)): 95%
% activity, 100 µM (TBK1(h) (human)): 16%
% activity, 100 µM (TrkA(h) (human)): 24%
Substance: MMI-0500 (peptide)
